Source: article PMC5898713

What was measured:
[1] = target: NepR wild-type, T25 fusion; test: BACTH β-galactosidase assay; details: Overnight cultures containing 0.5 mM IPTG and antibiotics for selection, 30°C; three biological replicates; parent: est. 1500; read off a plot
[2] = target: PhyT (formerly PhyP), T25 fusion; test: BACTH β-galactosidase assay; details: Overnight cultures containing 0.5 mM IPTG and antibiotics for selection, 30°C; three biological replicates; parent: est. 3000; read off a plot

| Substance | response [1] [Miller units] | response [2] [Miller units] |
| --- | --- | --- |
| PhyR wild-type, T18 fusion D194A; E235A | 6900 | 780 |
| PhyR wild-type, T18 fusion E235A | 7100 | 3100 |
| PhyR wild-type, T18 fusion D194A | 300 | 1100 |
